The target in assay [1] is human Cluster of Differentiation 3 protein (CD3) (human, UniProt P07766 23-207; P09693 23-182; P04234 22-171; P20963 22-164).
Assay [2] concerns the target human Cluster of Differentiation 28 protein (CD28) (human, UniProt P10747 19-220).

As usually defined, the Kd is the concentration at which binding is half-saturated. Low values mean tighter binding, high ones weaker binding.

B1: MX1243 (antibody)
chain 1: not shown
chain 2: DIQLTQSPSSLSASVGDRVTITCRASQSISYLNWYQQKPGKSPKRWIYDTSKLASGVPSRFSGSGSGTDYTLTISSMQPEDAATYYCQQWSSNPLTFGGGTKVEIKGGGGSGGSGSGGGGSASGSGQVQLVQSGAEVAKPGASVKVSCKASGYTFTRYTMHWVKQAPGQGLEWIGYINPSRGYTNYAQKFQGKATLTTDKSTSTAYMELSSLRSEDTAVYYCARYYDDHYSLDYWGQGTTLTVSSASGGSGDKTHTCPPCPAPEAAGGPSVFLFPPKPKDTLMISRTPEVTCVVVDVSHEDPEVKFNWYVDGVEVHNAKTKPREEQYNSTYRVVSVLTVLHQDWLNGKEYKCKVSNKALAAPIEKTISKAKGQPREPQVCTLPPSRDELTKNQVSLSCAVKGFYPSDIAVEWESNGQPENNYKTTPPVLDSDGSFFLVSKLTVDKSRWQQGNVFSCSVMHEALHNHYTQKSLSLSPG
B1: the results for the Kd in assay [1] and in assay [2] were 6.92 nM and 2.55 nM, respectively.

B2: MX1500 (antibody)
chain 1: not shown
chain 2: DIQLTQSPSSLSASVGDRVTITCRASQSISYLNWYQQKPGKSPKRWIYDTSKLASGVPSRFSGSGSGTDYTLTISSMQPEDAATYYCQQWSSNPLTFGGGTKVEIKRTVAAPSVFIFPPSDEQLKSGTASVVCLLNNFYPREAKVQWKVDNALQSGNSQESVTEQDSKDSTYSLSSTLTLSKADYEKHKVYACEVTHQGLSSPVTKSFNRGECGGGGSGGGGSGGGGSGGGGSGGGGSGGGGSGGGGSGGGGSQVQLVQSGAEVAKPGASVKVSCKASGYTFTRYTMHWVKQAPGQGLEWIGYINPSRGYTNYAQKFQGKATLTTDKSTSTAYMELSSLRSEDTAVYYCARYYDDHYSLDYWGQGTTLTVSSASTKGPSVFPLAPSSKSTSGGTAALGCLVKDYFPEPVTVSWNSGALTSGVHTFPAVLQSSGLYSLSSVVTVPSSSLGTQTYICNVNHKPSNTKVDKKVEPKSCDKTHTCPPCPAPEAAGGPSVFLFPPKPKDTLMISRTPEVTCVVVDVSHEDPEVKFNWYVDGVEVHNAKTKPREEQYNSTYRVVSVLTVLHQDWLNGKEYKCKVSNKALAAPIEKTISKAKGQPREPQVCTLPPSRDELTKNQVSLSCAVKGFYPSDIAVEWESNGQPENNYKTTPPVLDSDGSFFLVSKLTVDKSRWQQGNVFSCSVMHEALHNHYTQKSLSLSPG
On to B2, for which, in assay [1], the affinity, expressed as Kd, was 1050 nM.

B3: MX1506 (antibody)
heavy 1: not shown
heavy 2: QVQLVQSGAEVKKPGASVKVSCKASGYTFTSYYIHWVRQAPGQGLEWIGSIYPGNVNTNYNEKFKDRATLTVDTSISTAYMELSRLRSDDTAVYFCTRSHYGLDWNFDVWGQGTTVTVSSASTKGPSVFPLAPSSKSTSGGTAALGCLVKDYFPEPVTVSWNSGALTSGVHTFPAVLQSSGLYSLSSVVTVPSSSLGTQTYICNVNHKPSNTKVDKKVEPKSCDKTHTCPPCPAPEAAGGPSVFLFPPKPKDTLMISRTPEVTCVVVDVSHEDPEVKFNWYVDGVEVHNAKTKPREEQYNSTYRVVSVLTVLHQDWLNGKEYKCKVSNKALAAPIEKTISKAKGQPREPQVCTLPPSRDELTKNQVSLSCAVKGFYPSDIAVEWESNGQPENNYKTTPPVLDSDGSFFLVSKLTVDKSRWQQGNVFSCSVMHEALHNHYTQKSLSLSPG
light: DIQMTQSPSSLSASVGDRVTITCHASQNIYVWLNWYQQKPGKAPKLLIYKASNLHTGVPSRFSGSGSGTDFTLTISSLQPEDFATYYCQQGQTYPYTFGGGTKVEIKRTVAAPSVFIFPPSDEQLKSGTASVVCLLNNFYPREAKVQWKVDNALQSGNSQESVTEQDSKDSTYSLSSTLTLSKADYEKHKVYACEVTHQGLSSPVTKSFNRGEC
modifications: engineered C-terminal cysteine of the knob chain, joined by maleimide-thiol reaction to DSPE-PEG2000-maleimide on the LNP surface
Take B3: binding in assay [2] was put at a Kd of 1.34 nM.

B4: MX1507 (antibody)
heavy 1: not shown
heavy 2: QVQLVQSGAEVAKPGASVKVSCKASGYTFTRYTMHWVKQAPGQGLEWIGYINPSRGYTNYAQKFQGKATLTTDKSTSTAYMELSSLRSEDTAVYYCARYYDDHYSLDYWGQGTTLTVSSASTKGPSVFPLAPSSKSTSGGTAALGCLVKDYFPEPVTVSWNSGALTSGVHTFPAVLQSSGLYSLSSVVTVPSSSLGTQTYICNVNHKPSNTKVDKKVEPKSCDKTHTCPPCPAPEAAGGPSVFLFPPKPKDTLMISRTPEVTCVVVDVSHEDPEVKFNWYVDGVEVHNAKTKPREEQYNSTYRVVSVLTVLHQDWLNGKEYKCKVSNKALAAPIEKTISKAKGQPREPQVCTLPPSRDELTKNQVSLSCAVKGFYPSDIAVEWESNGQPENNYKTTPPVLDSDGSFFLVSKLTVDKSRWQQGNVFSCSVMHEALHNHYTQKSLSLSPG
light: DIQLTQSPSSLSASVGDRVTITCRASQSISYLNWYQQKPGKSPKRWIYDTSKLASGVPSRFSGSGSGTDYTLTISSMQPEDAATYYCQQWSSNPLTFGGGTKVEIKRTVAAPSVFIFPPSDEQLKSGTASVVCLLNNFYPREAKVQWKVDNALQSGNSQESVTEQDSKDSTYSLSSTLTLSKADYEKHKVYACEVTHQGLSSPVTKSFNRGEC
modifications: engineered C-terminal cysteine of the knob chain, joined by maleimide-thiol reaction to DSPE-PEG2000-maleimide on the LNP surface
B4 came in with a Kd in assay [1] of 727 nM.
